Measurements from paper PMC3597794.
Values joined by “and” are separate entries in the source; they are usually repeats but may differ in a detail not shown here. Equal values may be shown once.

Molecular target: HsiB1C1 complex (P. aeruginosa PAO1)
Assay: negative stain electron microscopy

HsiB1C1 complex
stoichiometry N: 12 and 13
